# Where no end group is shown, it is not given here.
# Legend:
# [1] = biological target: HER2 on TUBO cells (mice cell line), HER2-overexpressing (UniProt P06494 23-1257); assay: cell-based or functional assay
# [2] = biological target: HER2 on HER2-overexpressing breast cancer cells (SK-Br-3: human cell line) (human, UniProt P04626 23-1255); assay: cell-based or functional assay
# HER2 on TUBO cells (mice cell line), HER2-overexpressing, sequence (P06494 23-1257): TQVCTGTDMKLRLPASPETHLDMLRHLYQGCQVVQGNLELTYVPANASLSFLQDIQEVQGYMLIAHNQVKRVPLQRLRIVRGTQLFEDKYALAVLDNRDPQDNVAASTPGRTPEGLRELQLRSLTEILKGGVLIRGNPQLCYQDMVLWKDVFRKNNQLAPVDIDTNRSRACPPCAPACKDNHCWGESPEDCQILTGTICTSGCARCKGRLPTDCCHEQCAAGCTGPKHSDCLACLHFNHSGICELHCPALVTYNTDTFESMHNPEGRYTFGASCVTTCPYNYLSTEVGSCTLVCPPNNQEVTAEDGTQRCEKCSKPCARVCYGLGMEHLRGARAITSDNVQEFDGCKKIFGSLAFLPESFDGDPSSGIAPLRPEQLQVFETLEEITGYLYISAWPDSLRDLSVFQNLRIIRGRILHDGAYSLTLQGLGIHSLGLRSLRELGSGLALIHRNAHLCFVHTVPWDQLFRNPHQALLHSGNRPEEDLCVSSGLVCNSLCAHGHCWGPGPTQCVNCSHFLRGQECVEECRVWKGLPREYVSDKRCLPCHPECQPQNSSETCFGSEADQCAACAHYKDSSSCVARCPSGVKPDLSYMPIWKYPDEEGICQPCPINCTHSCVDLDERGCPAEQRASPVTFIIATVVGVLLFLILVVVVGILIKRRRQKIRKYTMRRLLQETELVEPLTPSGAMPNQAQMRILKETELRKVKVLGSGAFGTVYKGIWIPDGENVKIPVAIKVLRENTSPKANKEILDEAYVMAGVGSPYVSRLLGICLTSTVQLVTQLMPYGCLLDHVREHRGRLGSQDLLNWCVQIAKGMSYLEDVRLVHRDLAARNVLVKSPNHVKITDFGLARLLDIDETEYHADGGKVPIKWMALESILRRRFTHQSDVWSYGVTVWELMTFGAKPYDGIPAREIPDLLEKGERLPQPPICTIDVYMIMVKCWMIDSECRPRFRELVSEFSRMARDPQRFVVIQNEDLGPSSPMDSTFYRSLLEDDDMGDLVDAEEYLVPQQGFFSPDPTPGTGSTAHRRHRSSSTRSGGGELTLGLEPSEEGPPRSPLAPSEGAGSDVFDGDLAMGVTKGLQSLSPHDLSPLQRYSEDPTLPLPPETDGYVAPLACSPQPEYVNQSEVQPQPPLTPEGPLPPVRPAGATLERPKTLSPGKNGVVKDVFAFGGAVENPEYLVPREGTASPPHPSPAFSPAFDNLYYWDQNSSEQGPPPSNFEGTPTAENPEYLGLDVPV
Binder,"IC50 (cytotoxicity, MTT assay), TUBO cells, 3 hours [1]","IC50 (cytotoxicity, MTT assay), TUBO cells, 6 hours [1]","IC50 (cytotoxicity, MTT assay), SKBR3 cells, 3 hours [2]","IC50 (cytotoxicity, MTT assay), SKBR3 cells, 6 hours [2]"
"C(Maleimide‑PEG2000‑DSPE)GGGLTVSPWY (not fully specified; also: order of spacer and peptide assumed) [LTVSPWY (SEQ ID NO: 1) peptide-liposome, post inserted liposome 100 Ligand]",8.08 µM,3.9 µM,17.9 µM,6.07 µM
"C(Maleimide‑PEG2000‑DSPE)GGGLTVSPWY (not fully specified; also: order of spacer and peptide assumed) [LTVSPWY (SEQ ID NO: 1) peptide-liposome, post inserted liposome 200 Ligand]",6.5 µM,2.5 µM,15.2 µM,4.9 µM
"C(Maleimide‑PEG2000‑DSPE)GGGLTVSPWY (not fully specified; also: order of spacer and peptide assumed) [LTVSPWY (SEQ ID NO: 1) peptide-liposome, post inserted liposome 50 Ligand]",9.7 µM,4.6 µM,21.5 µM,10.4 µM
"C(Maleimide‑PEG2000‑DSPE)GGGLTVSPWY (not fully specified; also: order of spacer and peptide assumed) [LTVSPWY (SEQ ID NO: 1) peptide-liposome, post inserted liposome 25 Ligand]",11.1 µM,5.5 µM,24.9 µM,12.8 µM
